Test results from IntAct's records for PubMed 30591568.

B1: Poliovirus receptor (Homo sapiens), P15151 (parent)
chain: MARAMAAAWPLLLVALLVLSWPPPGTGDVVVQAPTQVPGFLGDSVTLPCYLQVPNMEVTHVSQLTWARHGESGSMAVFHQTQGPSYSESKRLEFVAARLGAELRNASLRMFGLRVEDEGNYTCLFVTFPQGSRSVDIWLRVLAKPQNTAEVQKVQLTGEPVPMARCVSTGGRPPAQITWHSDLGGMPNTSQVPGFLSGTVTVTSLWILVPSSQVDGKNVTCKVEHESFEKPQLLTVNLTVYYPPEVSISGYDNNWYLGQNEATLTCDARSNPEPTGYNWSTTMGPLPPFAVAQGAQLLIRPVDKPINTTLICNVTNALGARQAELTVQVKEGPPSEHSGISRNAIIFLVLGILVFLILLGIGIYFYWSKCSREVLWHCHLCPSSTEHASASANGHVSYSAVSRENSSSQDPQTEGTR
partner: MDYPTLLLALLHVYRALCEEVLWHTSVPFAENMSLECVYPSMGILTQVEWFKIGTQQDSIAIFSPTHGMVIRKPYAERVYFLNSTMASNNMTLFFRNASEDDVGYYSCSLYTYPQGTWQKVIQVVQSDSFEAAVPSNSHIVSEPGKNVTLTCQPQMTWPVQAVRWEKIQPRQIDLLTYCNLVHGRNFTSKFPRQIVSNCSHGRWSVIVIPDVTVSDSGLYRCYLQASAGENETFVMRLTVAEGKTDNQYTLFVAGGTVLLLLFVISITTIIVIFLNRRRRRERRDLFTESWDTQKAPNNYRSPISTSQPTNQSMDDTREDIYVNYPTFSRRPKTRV
B2: CD226 antigen (Mus musculus), Q8K4F0 (parent)
chain: MAYVTWLLAILHVHKALCEETLWDTTVRLSETMTLECVYPLTHNLTQVEWTKNTGTKTVSIAVYNPNHNMHIESNYLHRVHFLNSTVGFRNMSLSFYNASEADIGIYSCLFHAFPNGPWEKKIKVVWSDSFEIAAPSDSYLSAEPGQDVTLTCQLPRTWPVQQVIWEKVQPHQVDILASCNLSQETRYTSKYLRQTRSNCSQGSMKSILIIPNAMAADSGLYRCRSEAITGKNKSFVIRLIITDGGTNKHFILPIVGGLVSLLLVILIIIIFILYNRKRRRQVRIPLKEPRDKQSKVATNCRSPTSPIQSTDDEKEDIYVNYPTFSRRPKPRL
partner: B1 chain
B3: Poliovirus receptor (Homo sapiens), P15151 (parent)
chain: B1 chain
partner: B2 chain

Variants of: B1
Conditions: with cd226_human CD226, Q15762
For MARAMAAAWPLLLVALLVLSWPPPGTGDVVVQAPTQVPGFLGDSVTLPCYLQVPNMEVTHVSRLTWARHGESGSMAVFHQTQGPSYSESKRLEFVAARLGAELRNASLRMFGLRVEDEGNYTCLFVTRPQGSRSVDIWLRVLAKPQNTAEVQKVQLTGEPVPMARCVSTGGRPPAQITWHSDLGGMPNTSQVPGFLSGTVTVTSLWILVPSSQVDGKNVTCKVEHESFEKPQLLTVNLTVYYPPEVSISGYDNNWYLGQNEATLTCDARSNPEPTGYNWSTTMGPLPPFAVAQGAQLLIRPVDKPINTTLICNVTNALGARQAELTVQVKEGPPSEHSGISRNAIIFLVLGILVFLILLGIGIYFYWSKCSREVLWHCHLCPSSTEHASASANGHVSYSAVSRENSSSQDPQTEGTR [Q63R;F128R], the “effect of a mutation on the interaction” value was “disrupting interaction strength”.

Variants of: B2
Conditions: with pvr_human PVR, P15151
MAYVTWLLAILHVHKALCEETLWDTTVRLSETMTLECVYPLTHNLTAVEWTKNTGTKTVSIAVYNPNHNMHIESNYLHRVHFLNSTVGFRNMSLSFYNASEADIGIYSCLFHAFPNGPWEKKIKVVWSDSFEIAAPSDSYLSAEPGQDVTLTCQLPRTWPVQQVIWEKVQPHQVDILASCNLSQETRYTSKYLRQTRSNCSQGSMKSILIIPNAMAADSGLYRCRSEAITGKNKSFVIRLIITDGGTNKHFILPIVGGLVSLLLVILIIIIFILYNRKRRRQVRIPLKEPRDKQSKVATNCRSPTSPIQSTDDEKEDIYVNYPTFSRRPKPRL [Q47A] was tested, and the “effect of a mutation on the interaction” value was “disrupting interaction strength”.
For MAYVTWLLAILHVHKALCEETLWDTTVRLSETMTLECVYPLTHNLTRVRWTKNTGTKTVSIAVYNPNSNMHIESNYLHRVHFLNSTVGFRNMSLSFYNASEADIGIYSCLFHARPNGPWEKKIKVVWSDSFEIAAPSDSYLSAEPGQDVTLTCQLPRTWPVQQVIWEKVQPHQVDILASCNLSQETRYTSKYLRQTRSNCSQGSMKSILIIPNAMAADSGLYRCRSEAITGKNKSFVIRLIITDGGTNKHFILPIVGGLVSLLLVILIIIIFILYNRKRRRQVRIPLKEPRDKQSKVATNCRSPTSPIQSTDDEKEDIYVNYPTFSRRPKPRL [Q47R;E49R;H68S;F114R], the “effect of a mutation on the interaction” value was “disrupting interaction strength”.
With MAYVTWLLAILHVHKALCEETLWDTTVRLSETMTLECVYPLTHNLTQVEWTKNTGTKTVSIAVYNPNANMHIESNYLHRVHFLNSTVGFRNMSLSFYNASEADIGIYSCLFHAFPNGPWEKKIKVVWSDSFEIAAPSDSYLSAEPGQDVTLTCQLPRTWPVQQVIWEKVQPHQVDILASCNLSQETRYTSKYLRQTRSNCSQGSMKSILIIPNAMAADSGLYRCRSEAITGKNKSFVIRLIITDGGTNKHFILPIVGGLVSLLLVILIIIIFILYNRKRRRQVRIPLKEPRDKQSKVATNCRSPTSPIQSTDDEKEDIYVNYPTFSRRPKPRL [H68A] the “effect of a mutation on the interaction” value was “decreasing interaction strength”.
With MAYVTWLLAILHVHKALCEETLWDTTVRLSETMTLECVYPLTHNLTQVEWTKNTGTKTVSIAVYNPNHNMHIESNYLHRVHFLNSTVGFRNMSLSFYNASEADIGIYSCLFHAAPNGPWEKKIKVVWSDSFEIAAPSDSYLSAEPGQDVTLTCQLPRTWPVQQVIWEKVQPHQVDILASCNLSQETRYTSKYLRQTRSNCSQGSMKSILIIPNAMAADSGLYRCRSEAITGKNKSFVIRLIITDGGTNKHFILPIVGGLVSLLLVILIIIIFILYNRKRRRQVRIPLKEPRDKQSKVATNCRSPTSPIQSTDDEKEDIYVNYPTFSRRPKPRL [F114A] the “effect of a mutation on the interaction” value was “disrupting interaction strength”.

Variants of: B3
Conditions: with cd226_mouse Cd226, Q8K4F0
MARAMAAAWPLLLVALLVLSWPPPGTGDVVVQAPTQVPGFLGDSVTLPCYLQVPNMEVTHVSRLTWARHGESGSMAVFHQTQGPSYSESKRLEFVAARLGAELRNASLRMFGLRVEDEGNYTCLFVTRPQGSRSVDIWLRVLAKPQNTAEVQKVQLTGEPVPMARCVSTGGRPPAQITWHSDLGGMPNTSQVPGFLSGTVTVTSLWILVPSSQVDGKNVTCKVEHESFEKPQLLTVNLTVYYPPEVSISGYDNNWYLGQNEATLTCDARSNPEPTGYNWSTTMGPLPPFAVAQGAQLLIRPVDKPINTTLICNVTNALGARQAELTVQVKEGPPSEHSGISRNAIIFLVLGILVFLILLGIGIYFYWSKCSREVLWHCHLCPSSTEHASASANGHVSYSAVSRENSSSQDPQTEGTR [Q63R;F128R] was tested, and the “effect of a mutation on the interaction” value was “disrupting interaction strength”.
